Here are results for 25 molecules from patent US20250129166A1 (Five Prime, published 2025).

Positions count from the first letter of the chain named.

For assay [1], the target named is T1, monovalent hVISTA-ECD (amino acids 32-193 of SEQ ID NO: 1 with a 7xHis tail) (human, UniProt Q9H7M9 33-193).
T1 construct: also called huVISTA-His; human VISTA-ECD
Description: SPR, mAb captured on Protein A, hVISTA-ECD analyte, 37 C, pH 6.7. How it is done:
(§1) Binding kinetics were measured using a Biacore® T100 instrument (GE Healthcare). Protein A (ThermoFisher Scientific catalog #21181) was diluted to 20 μg/ml in 10 mM sodium acetate pH 4.5 and immobilized onto flow cells of a CM5 biosensor following the manufacturer's amine coupling protocol (GE Healthcare), targeting 2,000 RU immobilization density of Protein A per flow cell. The assay was conducted at 37° C. using PBST (137 mM sodium chloride, 2.7 mM potassium chloride, 10 mM phosphate buffer, 0.05% Tween 20) running buffer at pH 7.4, 6.7 and 6.0. Antibodies were diluted to 25 nM in PBST pH 7.4, and were captured across active biosensor flow cells at 5 ul/min for 40 seconds. A concentration series of 100-10 nM monovalent hVISTA-ECD (SEQ ID NO: 325) was prepared in pH 7.4, 6.7 and 6.0 running buffers, and was injected over the captured antibodies at 40 ul/min to measure association and dissociation. Two 15 second injections of 10 mM glycine pH 1.5 were used to regenerate the Protein A capture surface between assay cycles. Rate constants ka (kon) and kd (koff) were derived from reference flow cell and 0 nM blank-subtracted sensorgrams, and were fit to a 1:1 binding model in Biacore® T200 Evaluation Software v.2.0.
(§2) The affinity constant, KD was calculated as the ratio of rate constants koff/kₒₙ for each VISTA antibody. The % Rmax was calculated to compare how pH affects an antibody's binding capacity for VISTA, and represents the measured maximal VISTA binding response relative to the expected maximal VISTA binding response. The % Rmax is defined as the ratio of the reference-subtracted ‘binding’ report point response at the end of the 100 nM VISTA injection for each antibody (Rmax) relative to the expected VISTA binding response (Rexp). Rexp is calculated as Rexp=[(VISTA-ECD molecular weight/mAb molecular weight)×(mAb ‘capture’ report point response (RUs)]×2 binding sites per mAb.
Background: In SPR one partner is held on a chip, and binding of the other changes the refractive index at the surface.

Assay [2] deals with T1, monovalent hVISTA-ECD (amino acids …). The assay can be described thus: SPR, mAb captured on Protein A, hVISTA-ECD analyte, 37 C, pH 6.0. How it is done:
as §1, §2

Assay [3] shares this target. Description: SPR, mAb on Protein A, 37C, pH 6.0; pH 6.0. How it is done: (§3) Binding of several preparations of each of the '029 progeny clones and of the parent '029 antibodies, formatted as IgG1.3 antibodies, to human VISTA at pH 6.0 and 7.4 was measured by Surface plasmon resonance (SPR). SPR analysis was performed to measure koff and KD binding affinity measurements for VISTA Abs at acidic and neutral pHs using a Biacore® T100 instrument (GE Healthcare). Protein A (ThermoFisher Scientific catalog #21181) was diluted to 20 μg/ml in 10 mM sodium acetate pH 4.5 and immobilized onto flow cells of a CM5 biosensor following the manufacturer's amine coupling protocol (GE Healthcare), targeting 2,000 RU immobilization density of Protein A per flow cell. SPR experiments were conducted at 37° C. using PBST (137 mM sodium chloride, 2.7 mM potassium chloride, 10 mM phosphate buffer, 0.05% Tween® 20) running buffer at pH 7.4 and 6.0. Antibodies were diluted to 25 nM in PBST pH 7.4, and were captured across active biosensor flow cells at 5 ul/min for 60 seconds. A concentration series of 50-5 nM monovalent hVISTA-ECD (SEQ ID NO: 325) was prepared in pH 7.4 and 6.0 running buffers, and was injected over the captured antibodies at 40 ul/min to measure association and dissociation. Two 15 second injections of 10 mM glycine pH 1.5 were used to regenerate the Protein A capture surface between assay cycles. Rate constants ka (kₒₙ) and kd (koff) were derived from reference flow cell and 0 nM blank-subtracted sensorgrams, and were fit to a 1:1 binding model in Biacore® T200 Evaluation Software v.2.0. The affinity constant, KD was calculated as the ratio of rate constants koff/kₒₙ for each VISTA antibody.

For assay [4] the target is unchanged. The assay can be described thus: SPR, mAb on Protein A, 37C, pH 7.4. Here is the method: as §3
The target is the same in assay [5]. The assay can be described thus: SPR, mAb on Protein A, 37C, pH 6.0. Here is the method:
as §3

T1 sequence (Q9H7M9 other isoform, or with tags, fused parts or gaps limits assumed): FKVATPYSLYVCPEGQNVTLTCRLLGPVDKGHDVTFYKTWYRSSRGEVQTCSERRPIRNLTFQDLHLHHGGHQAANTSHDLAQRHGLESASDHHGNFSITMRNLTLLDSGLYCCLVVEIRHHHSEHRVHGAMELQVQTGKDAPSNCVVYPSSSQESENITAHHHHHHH

B1: P1-068761_E30D (antibody, human IgG1, kappa, V domains shown)
VH: EVQLVESGGGLVQPGKSLRLSCAASGFTLDDEAMHWVRQAPGKGLEWVSGINWNSEEIGYADSVKGRFTISRDNAKNSLYLQMNSLRTEDTALYYCAKVPGYSHGWIDAEDVWGQGTMVTVSS
VL: not shown
notes: also called P1-070864
As for B1, the koff came out at 0.018 s⁻¹ in assay [1] and 0.0062 s⁻¹ in assay [2].

B2: P1-068761_E30D_E55A (antibody, human IgG1, kappa, V domains shown)
VH: B1 VH with E56A
VL: not shown
notes: also called P1-070890
In turn, B2 showed a koff in assay [2] of 0.0074 s⁻¹.

B3: P1-071779 (P1-070868_HC_T84A, FW revertant) (antibody, V domains shown)
VH: B1 VH with D30E, E56A, T88A
VL: not shown
notes: VH/VL only
In assay [3], B3 came in with a Kd of 7 nM, a koff of 0.0018 s⁻¹ and a kon of 260000 M⁻¹ s⁻¹.

B4: P1-071787 (P1-070908_HC_K16R_T84A, FW revertant) (antibody, V domains shown)
VH: B1 VH with K16R, D30E, E32Y, N52D, E56A, E57N, T88A, H104G, V112D
VL: not shown
notes: VH/VL only
In assay [3], B4 registered a Kd of 13 nM, a koff of 0.0027 s⁻¹ and a kon of 210000 M⁻¹ s⁻¹.

B5: P1-071781 (P1-070906_HC_K16R_T84A, FW revertant) (antibody, V domains shown)
VH: B1 VH with K16R, D30E, E32Y, E57N, T88A, H104G, V112D
VL: not shown
notes: VH/VL only
Turning to B5, in assay [3], binding was characterised by a dissociation constant (Kd) of 7.7 nM, the koff was 0.0017 s⁻¹ and the kon came to 220000 M⁻¹ s⁻¹.

B6: P1-068761_E55A_E56N (antibody, human IgG1, kappa, V domains shown)
VH: B1 VH with D30E, E56A, E57N
VL: not shown
notes: also called P1-070878
As for B6, the koff in assay [1] was 0.029 s⁻¹; in assay [2], 0.0056 s⁻¹.

B7: P1-071757 (P1-061029_HC_K16R_T84A, FW revertant) (antibody, V domains shown)
VH: B1 VH with K16R, E32Y, E56A, E57N, T88A, H104G, E110F
VL: not shown
notes: VH/VL only
Take B7: in assay [4], the affinity, expressed as Kd, was 45 nM; the koff was 0.0059 s⁻¹; the kon stood at 130000 M⁻¹ s⁻¹. In assay [5], this molecule had a Kd of 7.3 nM, a koff of 0.0059 s⁻¹ and a kon of 810000 M⁻¹ s⁻¹.

B8: P1-068761_H100G (antibody, human IgG1, kappa, V domains shown)
VH: B1 VH with D30E, H104G
VL: not shown
notes: also called P1-070872
With B8, the figures for the koff in assay [1] and in assay [2] were 0.014 s⁻¹ and 0.0052 s⁻¹, respectively.

B9: P1-071791 (P1-070908_HC_T84A, FW revertant) (antibody, V domains shown)
VH: B1 VH with D30E, E32Y, N52D, E56A, E57N, T88A, H104G, V112D
VL: not shown
notes: VH/VL only
B9: in assay [3], the Kd turned out to be 11 nM, the off-rate constant (koff) worked out at 0.0027 s⁻¹ and the kon was 240000 M⁻¹ s⁻¹.

B10: P1-071777 (P1-070868_HC_K16R, FW revertant) (antibody, V domains shown)
VH: B1 VH with K16R, D30E, E56A
VL: not shown
notes: VH/VL only
B10: in assay [3], binding was characterised by a dissociation constant (Kd) of 6.4 nM, the koff came out at 0.0017 s⁻¹ and the kon is 270000 M⁻¹ s⁻¹.

B11: P1-071759 (P1-061029_HC_K16R, FW revertant) (antibody, V domains shown)
VH: B1 VH with K16R, E32Y, E56A, E57N, H104G, E110F
VL: not shown
notes: VH/VL only
In assay [4], B11 returned a Kd of 46 nM, a koff of 0.006 s⁻¹ and a kon of 130000 M⁻¹ s⁻¹. In assay [5], the Kd turned out to be 7.4 nM, the koff is 0.0059 s⁻¹ and the kon is 800000 M⁻¹ s⁻¹.

B12: P1-068761_E56N (antibody, human IgG1, kappa, V domains shown)
VH: B1 VH with D30E, E57N
VL: not shown
notes: also called P1-070870
In assay [2], B12 displayed a koff of 0.0055 s⁻¹.

B13: P1-072006 (P1-061029_Y32E) (antibody, human IgG1, kappa, V domains shown)
VH: B1 VH with E56A, E57N, H104G, E110F
VL: not shown
notes: also called P1-72006
In the case of B13, in assay [4], the Kd was determined as 540 nM, the koff was determined as 0.0063 s⁻¹ and the kon stood at 12000 M⁻¹ s⁻¹. In assay [5], this molecule registered a Kd of 3.5 nM, a koff of 0.0012 s⁻¹ and a kon of 340000 M⁻¹ s⁻¹.

B14: P1-068761_E30D_H100G (antibody, human IgG1, kappa, V domains shown)
VH: B1 VH with H104G
VL: not shown
notes: also called P1-070894
Take B14: in assay [2], the koff came out at 0.021 s⁻¹.

B15: P1-071795 (P1-070916_HC_K16R, FW revertant) (antibody, V domains shown)
VH: B1 VH with K16R, D30E, E32Y, E56A, E57N, H104G, V112D
VL: not shown
notes: VH/VL only
In assay [3], B15 registered a Kd of 8.1 nM, a koff of 0.0017 s⁻¹ and a kon of 210000 M⁻¹ s⁻¹.

B16: P1-071789 (P1-070908_HC_K16R, FW revertant) (antibody, V domains shown)
VH: B1 VH with K16R, D30E, E32Y, N52D, E56A, E57N, H104G, V112D
VL: not shown
notes: VH/VL only
Turning to B16, in assay [3], the dissociation constant (Kd) was determined as 13 nM, the koff was 0.0026 s⁻¹ and the kon came to 210000 M⁻¹ s⁻¹.

B17: P1-072002 (P1-061029_F100fE) (antibody, human IgG1, kappa, V domains shown)
VH: B1 VH with E32Y, E56A, E57N, H104G
VL: not shown
notes: also called P1-72002
For the molecule B17, in assay [4], the affinity, expressed as Kd, was 190 nM; the koff worked out at 0.0085 s⁻¹; the kon was 44000 M⁻¹ s⁻¹. In assay [5], this molecule had a Kd of 2.5 nM, a koff of 0.0016 s⁻¹ and a kon of 650000 M⁻¹ s⁻¹.

B18: P1-071775 (P1-070868_HC_K16R_T84A, FW revertant) (antibody, V domains shown)
VH: B1 VH with K16R, D30E, E56A, T88A
VL: not shown
notes: VH/VL only
In assay [3], B18 had a Kd of 6.9 nM, a koff of 0.0017 s⁻¹ and a kon of 250000 M⁻¹ s⁻¹.

B19: P1-068761_E56N_H100G (antibody, human IgG1, kappa, V domains shown)
VH: B1 VH with D30E, E57N, H104G
VL: not shown
notes: also called P1-070900
In turn, B19 registered a koff in assay [2] of 0.0081 s⁻¹.

B20: P1-068761_E30D_E56N (antibody, human IgG1, kappa, V domains shown)
VH: B1 VH with E57N
VL: not shown
notes: also called P1-070892
B20 registered a koff in assay [2] of 0.034 s⁻¹.

B21: P1-071783 (P1-070906_HC_K16R, FW revertant) (antibody, V domains shown)
VH: B1 VH with K16R, D30E, E32Y, E57N, H104G, V112D
VL: not shown
notes: VH/VL only
As to B21, in assay [3], the Kd was 7.6 nM, the koff stood at 0.0017 s⁻¹ and the kon came to 220000 M⁻¹ s⁻¹.

B22: P1-071785 (P1-070906_HC_T84A, FW revertant) (antibody, V domains shown)
VH: B1 VH with D30E, E32Y, E57N, T88A, H104G, V112D
VL: not shown
notes: VH/VL only
In assay [3], B22 displayed a Kd of 6.7 nM, a koff of 0.0017 s⁻¹ and a kon of 250000 M⁻¹ s⁻¹.

B23: P1-070868 (P1-068761_E55A) IgG1.3 (antibody, V domains shown)
VH: B1 VH with D30E, E56A
VL: not shown
notes: IgG1.3
Molecule B23 gave a koff in assay [1] of 0.0064 s⁻¹. In assay [3], this molecule showed a Kd of 7 nM, a koff of 0.0018 s⁻¹ and a kon of 260000 M⁻¹ s⁻¹. Further, in assay [2], the off-rate constant (koff) turned out to be 0.0017 s⁻¹.

B24: P1-071797 (P1-070916_HC_T84A, FW revertant) (antibody, V domains shown)
VH: B1 VH with D30E, E32Y, E56A, E57N, T88A, H104G, V112D
VL: not shown
notes: VH/VL only
In assay [3], B24 came in with a Kd of 7.7 nM, a koff of 0.0017 s⁻¹ and a kon of 220000 M⁻¹ s⁻¹.

B25: P1-071761 (P1-061029_HC_T84A, FW revertant) (antibody, V domains shown)
VH: B1 VH with E32Y, E56A, E57N, T88A, H104G, E110F
VL: not shown
notes: VH/VL only
In assay [4], B25 showed a Kd of 40 nM, a koff of 0.006 s⁻¹ and a kon of 150000 M⁻¹ s⁻¹. For the same molecule, in assay [5], the Kd was found to be 6.9 nM, the koff is 0.006 s⁻¹ and the kon worked out at 870000 M⁻¹ s⁻¹.

A word on the koff: it is a measure of how fast the partners let go of each other. Low readings indicate a long-lived complex, high ones a short-lived complex. As usually defined, the Kd is a measure of binding affinity in units of concentration. The term kon denotes the second-order rate constant of association.
